T1: Human TROP2 Protein, His Tag (Acro Biosystems) (human, UniProt P09758 27-274)
T1 construct: not shown: His tag
T1 sequence (looked up): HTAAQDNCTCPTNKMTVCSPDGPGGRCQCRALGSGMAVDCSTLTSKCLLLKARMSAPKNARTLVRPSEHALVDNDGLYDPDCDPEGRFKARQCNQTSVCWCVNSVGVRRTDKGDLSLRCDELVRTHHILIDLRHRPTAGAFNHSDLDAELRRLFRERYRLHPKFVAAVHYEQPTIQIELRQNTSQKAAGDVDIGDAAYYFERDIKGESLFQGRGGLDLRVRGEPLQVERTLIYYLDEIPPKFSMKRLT

T2: Human TROP2 Protein, His Tag (Acro Biosystems) (human, UniProt P09758 27-274)
T2 construct: also called TACSTD2; not shown: His tag
T2 sequence (looked up): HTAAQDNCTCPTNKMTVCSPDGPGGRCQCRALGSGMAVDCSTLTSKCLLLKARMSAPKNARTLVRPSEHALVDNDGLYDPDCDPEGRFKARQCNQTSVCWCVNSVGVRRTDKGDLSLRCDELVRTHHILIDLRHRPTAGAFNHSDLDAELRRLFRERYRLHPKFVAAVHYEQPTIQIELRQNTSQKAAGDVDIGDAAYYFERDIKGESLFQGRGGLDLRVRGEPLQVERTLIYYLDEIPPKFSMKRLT

T3: Human TROP2 Protein, His Tag (Acro Biosystems) (human, UniProt P09758 27-274)
T3 construct: not shown: His tag
T3 sequence (looked up): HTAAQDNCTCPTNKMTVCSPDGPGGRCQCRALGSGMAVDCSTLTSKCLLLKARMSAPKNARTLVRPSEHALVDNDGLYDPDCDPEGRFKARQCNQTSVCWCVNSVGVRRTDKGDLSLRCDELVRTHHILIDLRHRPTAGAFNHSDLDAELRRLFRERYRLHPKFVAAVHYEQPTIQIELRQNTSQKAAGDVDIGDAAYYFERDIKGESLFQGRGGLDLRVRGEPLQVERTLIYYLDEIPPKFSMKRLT


Assays:
[1] = target: T1, Human TROP2 Protein, His Tag (Acro …); experiment: BLI (Octet)
[2] = target: T2, Human TROP2 Protein, His Tag (Acro …); experiment: BLI (Octet) [2/2]
[3] = target: T3, Human TROP2 Protein, His Tag (Acro …); experiment: BLI (Octet); remark: listed apart in the source

binding result [1] | binding result [2] | Binder | other results
no binding (tested: 50 nM) | – | MYT12390 (antibody, V domains shown, datopotamab VL 28, 89 substituted) VH: QVQLVQSGAEVKKPGASVKVSCKASGYTFTTAGMQWVRQAPGQGLEWMGWINTHSGVPKYAEDFKGRVTISADTSTSTAYLQLSSLKSEDTAVYYCARSGFGSSYWYFDVWGQGTLVTVSS VL: DIQMTQSPSSLSASVGDRVTITCKASQHVSTAVAWYQQKPGKAPKLLIYSASYRYTGVPSRFSGSGSGTDFTLTISSLQPEDFAVYYCHQHYITPLTFGQGTKLEIK | –
– | binds | MYT13412 (antibody, V domains shown, Sacituzumab HC-LC pairing variant) VH: QVQLQQSGSELKKPGASVKVSCKASGYTFTNYGMNWVKQAPGQGLKWMGWINTYTGEPTYTDDFHGRFAFSLDTSVSTAYLQISSLKADDTAVYFCARGGFGSSYWYFDVWGQGSLVTVSS VL: DIQLTQSPSSLSASVGDRVSITCKASQDVSIAVAWYQQKPGKAPKLLIYSHHYRYTGVPDRFSGSGSGTDFTLTISSLQPEDFAVYYCQQHYITPLTFGAGTKVEIK | –
– | binds | MYT13408 (antibody, V domains shown, Sacituzumab HC-LC pairing variant) VH: QVQLQQSGSELKKPGASVKVSCKASGYTFTNYGMNWVKQAPGQGLKWMGWINTYTGEPTHTDDFKGRFAFSLDTSVSTAYLQISSLKADDTAVYFCARGGFGSSYWYFDVWGQGSLVTVSS VL: DIQLTQSPSSLSASVGDRVSITCKASQDVSIAVAWYQQKPGKAPKLLIYSHHYRYTGVPDRFSGSGSGTDFTLTISSLQPEDFAVYYCQQHYITPLTFGAGTKVEIK | –
no binding (tested: 50 nM) | – | MYT12402 (antibody, V domains shown, datopotamab VL 28, 52, 92 substituted) VH: QVQLVQSGAEVKKPGASVKVSCKASGYTFTTAGMQWVRQAPGQGLEWMGWINTHSGVPKYAEDFKGRVTISADTSTSTAYLQLSSLKSEDTAVYYCARSGFGSSYWYFDVWGQGTLVTVSS VL: DIQMTQSPSSLSASVGDRVTITCKASQHVSTAVAWYQQKPGKAPKLLIYSAHYRYTGVPSRFSGSGSGTDFTLTISSLQPEDFAVYYCQQHHITPLTFGQGTKLEIK | –
no binding (tested: 50 nM) | – | MYT12397 (antibody, V domains shown, datopotamab VL 89, 92 substituted) VH: QVQLVQSGAEVKKPGASVKVSCKASGYTFTTAGMQWVRQAPGQGLEWMGWINTHSGVPKYAEDFKGRVTISADTSTSTAYLQLSSLKSEDTAVYYCARSGFGSSYWYFDVWGQGTLVTVSS VL: DIQMTQSPSSLSASVGDRVTITCKASQDVSTAVAWYQQKPGKAPKLLIYSASYRYTGVPSRFSGSGSGTDFTLTISSLQPEDFAVYYCHQHHITPLTFGQGTKLEIK | –
– | binds | MYT13436 (antibody, V domains shown, Sacituzumab HC-LC pairing variant) VH: QVQLQQSGSELKKPGASVKVSCKASGYTFTNYGMNWVKQAPGQGLKWMGWINTYTGEPTYTDDFHGRFAFSLDTSVSTAYLQISSLKADDTAVYFCARGGFGSSYWYFDVWGQGSLVTVSS VL: DIQLTQSPSSLSASVGDRVSITCKASQDVSIAVAWYQQKPGKAPKLLIYSHSHRYTGVPDRFSGSGSGTDFTLTISSLQPEDFAVYYCQQHYHTPLTFGAGTKVEIK | –
no binding (tested: 50 nM) | – | MYT12391 (antibody, V domains shown, datopotamab VL 28, 92 substituted) VH: QVQLVQSGAEVKKPGASVKVSCKASGYTFTTAGMQWVRQAPGQGLEWMGWINTHSGVPKYAEDFKGRVTISADTSTSTAYLQLSSLKSEDTAVYYCARSGFGSSYWYFDVWGQGTLVTVSS VL: DIQMTQSPSSLSASVGDRVTITCKASQHVSTAVAWYQQKPGKAPKLLIYSASYRYTGVPSRFSGSGSGTDFTLTISSLQPEDFAVYYCQQHHITPLTFGQGTKLEIK | –
no binding (tested: 50 nM) | – | MYT12394 (antibody, V domains shown, datopotamab VL 51, 92 substituted) VH: QVQLVQSGAEVKKPGASVKVSCKASGYTFTTAGMQWVRQAPGQGLEWMGWINTHSGVPKYAEDFKGRVTISADTSTSTAYLQLSSLKSEDTAVYYCARSGFGSSYWYFDVWGQGTLVTVSS VL: DIQMTQSPSSLSASVGDRVTITCKASQDVSTAVAWYQQKPGKAPKLLIYSHSYRYTGVPSRFSGSGSGTDFTLTISSLQPEDFAVYYCQQHHITPLTFGQGTKLEIK | –
no binding (tested: 50 nM) | – | MYT12396 (antibody, V domains shown, datopotamab VL 52, 92 substituted) VH: QVQLVQSGAEVKKPGASVKVSCKASGYTFTTAGMQWVRQAPGQGLEWMGWINTHSGVPKYAEDFKGRVTISADTSTSTAYLQLSSLKSEDTAVYYCARSGFGSSYWYFDVWGQGTLVTVSS VL: DIQMTQSPSSLSASVGDRVTITCKASQDVSTAVAWYQQKPGKAPKLLIYSAHYRYTGVPSRFSGSGSGTDFTLTISSLQPEDFAVYYCQQHHITPLTFGQGTKLEIK | –
– | binds | MYT13411 (antibody, V domains shown, Sacituzumab HC-LC pairing variant) VH: QVQLQQSGSELKKPGASVKVSCKASGYTFTNYGMNWVKQAPGQGLKWMGWINTYTGEPTYTDDHKGRFAFSLDTSVSTAYLQISSLKADDTAVYFCARGGFGSSYWYFDVWGQGSLVTVSS VL: DIQLTQSPSSLSASVGDRVSITCKASQDVSIAVAWYQQKPGKAPKLLIYSHHYRYTGVPDRFSGSGSGTDFTLTISSLQPEDFAVYYCQQHYITPLTFGAGTKVEIK | –
– | binds | MYT13423 (antibody, V domains shown, Sacituzumab HC-LC pairing variant) VH: QVQLQQSGSELKKPGASVKVSCKASGYTFTNYHMNWVKQAPGQGLKWMGWINTYTGEPTYTDDFKGRFAFSLDTSVSTAYLQISSLKADDTAVYFCARGGFGSSYWYFDVWGQGSLVTVSS VL: DIQLTQSPSSLSASVGDRVSITCKASQDVHIAVAWYQQKPGKAPKLLIYSHSYRYTGVPDRFSGSGSGTDFTLTISSLQPEDFAVYYCQQHYHTPLTFGAGTKVEIK | –
– | binds | MYT13410 (antibody, V domains shown, Sacituzumab HC-LC pairing variant) VH: QVQLQQSGSELKKPGASVKVSCKASGYTFTNYGMNWVKQAPGQGLKWMGWINTYTGEPTYTDHFKGRFAFSLDTSVSTAYLQISSLKADDTAVYFCARGGFGSSYWYFDVWGQGSLVTVSS VL: DIQLTQSPSSLSASVGDRVSITCKASQDVSIAVAWYQQKPGKAPKLLIYSHHYRYTGVPDRFSGSGSGTDFTLTISSLQPEDFAVYYCQQHYITPLTFGAGTKVEIK | –
– | binds | MYT13409 (antibody, V domains shown, Sacituzumab HC-LC pairing variant) VH: QVQLQQSGSELKKPGASVKVSCKASGYTFTNYGMNWVKQAPGQGLKWMGWINTYTGEPTYTHDFKGRFAFSLDTSVSTAYLQISSLKADDTAVYFCARGGFGSSYWYFDVWGQGSLVTVSS VL: DIQLTQSPSSLSASVGDRVSITCKASQDVSIAVAWYQQKPGKAPKLLIYSHHYRYTGVPDRFSGSGSGTDFTLTISSLQPEDFAVYYCQQHYITPLTFGAGTKVEIK | –
no binding (tested: 50 nM) | – | MYT12403 (antibody, V domains shown, datopotamab VL 28, 89, 92 substituted) VH: QVQLVQSGAEVKKPGASVKVSCKASGYTFTTAGMQWVRQAPGQGLEWMGWINTHSGVPKYAEDFKGRVTISADTSTSTAYLQLSSLKSEDTAVYYCARSGFGSSYWYFDVWGQGTLVTVSS VL: DIQMTQSPSSLSASVGDRVTITCKASQHVSTAVAWYQQKPGKAPKLLIYSASYRYTGVPSRFSGSGSGTDFTLTISSLQPEDFAVYYCHQHHITPLTFGQGTKLEIK | –
– | binds | MYT13430 (antibody, V domains shown, Sacituzumab HC-LC pairing variant) VH: QVQLQQSGSELKKPGASVKVSCKASGYTFTNHGMNWVKQAPGQGLKWMGWINTYTGEPTYTDDFKGRFAFSLDTSVSTAYLQISSLKADDTAVYFCARGGFGSSYWYFDVWGQGSLVTVSS VL: DIQLTQSPSSLSASVGDRVSITCKASQDVSIAVAWYQQKPGKAPKLLIYSHSHRYTGVPDRFSGSGSGTDFTLTISSLQPEDFAVYYCQQHYHTPLTFGAGTKVEIK | –
no binding (tested: 50 nM) | – | MYT12400 (antibody, V domains shown, datopotamab VL 28, 51, 92 substituted) VH: QVQLVQSGAEVKKPGASVKVSCKASGYTFTTAGMQWVRQAPGQGLEWMGWINTHSGVPKYAEDFKGRVTISADTSTSTAYLQLSSLKSEDTAVYYCARSGFGSSYWYFDVWGQGTLVTVSS VL: DIQMTQSPSSLSASVGDRVTITCKASQHVSTAVAWYQQKPGKAPKLLIYSHSYRYTGVPSRFSGSGSGTDFTLTISSLQPEDFAVYYCQQHHITPLTFGQGTKLEIK | –
– | binds | MYT13414 (antibody, V domains shown, Sacituzumab HC-LC pairing variant) VH: QVQLQQSGSELKKPGASVKVSCKASGYTFTNHGMNWVKQAPGQGLKWMGWINTYTGEPTYTDDFKGRFAFSLDTSVSTAYLQISSLKADDTAVYFCARGGFGSSYWYFDVWGQGSLVTVSS VL: DIQLTQSPSSLSASVGDRVSITCKASQDVHIAVAWYQQKPGKAPKLLIYSHSYRYTGVPDRFSGSGSGTDFTLTISSLQPEDFAVYYCHQHYITPLTFGAGTKVEIK | –
no binding (tested: 50 nM) | – | MYT12401 (antibody, V domains shown, datopotamab VL 28, 52, 89 substituted) VH: QVQLVQSGAEVKKPGASVKVSCKASGYTFTTAGMQWVRQAPGQGLEWMGWINTHSGVPKYAEDFKGRVTISADTSTSTAYLQLSSLKSEDTAVYYCARSGFGSSYWYFDVWGQGTLVTVSS VL: DIQMTQSPSSLSASVGDRVTITCKASQHVSTAVAWYQQKPGKAPKLLIYSAHYRYTGVPSRFSGSGSGTDFTLTISSLQPEDFAVYYCHQHYITPLTFGQGTKLEIK | –
– | – | MYT13304 (antibody, V domains shown, Full-length IgG from Expi293 supernatant; also called hu7E6SVG heavy chain and light chain pairing variant) VH: QVQLQESGPGLVKPSETLSLTCTVSGGSISSYGVHWIRQPPGKGLEWIGVIWTSGVTDYNSALMGRVTISVDTSKNQFSLKLSSVTAADTAVYYCARDGDYDHYTMDYWGQGTLVTVSS VL: DIVMTQSPDSLAVSLGERATINCRASKSVSTSGYSYMHWYQQKPGQPPKLLIYLASNLESGVPDRFSGSGSGTDFTLTISSLQAEDVAVYYCQHSRELPYHFGQGTKLEIK | binding result [3]: binds
